These results are taken from publication PMC11535040, “Requirement of Nek2a and cyclin A2 for Wapl-dependent removal of cohesin from prophase chromatin” (The EMBO Journal, 2024).

For the test, the target named is T1, Flag-tagged Pds5a (human, UniProt Q29RF7 1-1337).
T1 construct: Pds5a, human; insert by PCR on human cDNA; also called Flag-Pds5; source: Hek293T, transfected (alone or with eGFP-Nek2aΔMR and eGFP-Δ86-cyclin A2), taxol-arrested
T1 sequence (looked up): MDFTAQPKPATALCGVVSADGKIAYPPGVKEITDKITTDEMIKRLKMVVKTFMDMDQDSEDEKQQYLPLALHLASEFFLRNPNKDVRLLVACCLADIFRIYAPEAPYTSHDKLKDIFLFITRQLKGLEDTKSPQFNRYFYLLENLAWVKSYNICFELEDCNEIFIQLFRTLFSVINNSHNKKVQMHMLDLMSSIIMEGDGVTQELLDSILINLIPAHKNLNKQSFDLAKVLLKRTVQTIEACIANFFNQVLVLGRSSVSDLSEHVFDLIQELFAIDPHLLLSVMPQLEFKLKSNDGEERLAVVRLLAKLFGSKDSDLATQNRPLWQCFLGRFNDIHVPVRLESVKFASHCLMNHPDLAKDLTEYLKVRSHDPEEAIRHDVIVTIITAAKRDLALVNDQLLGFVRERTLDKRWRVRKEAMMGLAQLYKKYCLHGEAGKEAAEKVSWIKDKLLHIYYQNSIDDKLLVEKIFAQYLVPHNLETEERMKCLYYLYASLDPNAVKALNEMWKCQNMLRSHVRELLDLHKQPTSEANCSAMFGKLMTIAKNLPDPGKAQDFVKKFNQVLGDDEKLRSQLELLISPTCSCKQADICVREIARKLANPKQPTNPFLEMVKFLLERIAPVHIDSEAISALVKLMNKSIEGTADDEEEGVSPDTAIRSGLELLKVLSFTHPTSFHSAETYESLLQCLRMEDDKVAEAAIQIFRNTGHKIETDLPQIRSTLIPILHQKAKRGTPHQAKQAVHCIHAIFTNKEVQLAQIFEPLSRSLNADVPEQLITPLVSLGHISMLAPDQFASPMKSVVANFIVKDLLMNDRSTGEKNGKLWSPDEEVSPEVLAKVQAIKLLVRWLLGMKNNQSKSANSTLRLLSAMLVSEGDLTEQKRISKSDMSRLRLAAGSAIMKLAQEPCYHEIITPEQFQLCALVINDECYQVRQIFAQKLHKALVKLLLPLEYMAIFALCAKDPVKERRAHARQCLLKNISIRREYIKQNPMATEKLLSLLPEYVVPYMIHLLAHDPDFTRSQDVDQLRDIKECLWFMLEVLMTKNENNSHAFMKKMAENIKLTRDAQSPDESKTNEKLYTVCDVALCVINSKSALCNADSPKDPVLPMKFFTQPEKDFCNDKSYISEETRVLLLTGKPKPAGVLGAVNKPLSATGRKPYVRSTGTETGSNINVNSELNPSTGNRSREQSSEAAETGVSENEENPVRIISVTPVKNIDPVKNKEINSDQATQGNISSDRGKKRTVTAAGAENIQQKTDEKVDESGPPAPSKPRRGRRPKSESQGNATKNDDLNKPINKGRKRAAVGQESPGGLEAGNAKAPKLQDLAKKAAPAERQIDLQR
Description: pull-down; Flag-Pds5a or -b affinity-purified on anti-Flag beads from chromatin-free lysates of taxol-arrested Hek293T cells (expressed alone or with Nek2aΔMR and/or Δ86-cyclin A2); beads incubated with a mixture of recombinant Wapl (2 µl) and sororin (0.3 µg) in 15 µl cleavage buffer with kinase inhibitors, 20 min at 37 °C; bound and unbound fractions by immunoblotting. The conditions noted are these: both partners purified.

B1: recombinant human Wapl (natural protein, UniProt Q7Z5K2 1-1190, looked up)
chain: MTSRFGKTYSRKGGNGSSKFDEVFSNKRTTLSTKWGETTFMAKLGQKRPNFKPDIQEIPKKPKVEEESTGDPFGFDSDDESLPVSSKNLAQVKCSSYSESSEAAQLEEVTSVLEANSKISHVVVEDTVVSDKCFPLEDTLLGKEKSTNRIVEDDASISSCNKLITSDKVENFHEEHEKNSHHIHKNADDSTKKPNAETTVASEIKETNDTWNSQFGKRPESPSEISPIKGSVRTGLFEWDNDFEDIRSEDCILSLDSDPLLEMKDDDFKNRLENLNEAIEEDIVQSVLRPTNCRTYCRANKTKSSQGASNFDKLMDGTSQALAKANSESSKDGLNQAKKGGVSCGTSFRGTVGRTRDYTVLHPSCLSVCNVTIQDTMERSMDEFTASTPADLGEAGRLRKKADIATSKTTTRFRPSNTKSKKDVKLEFFGFEDHETGGDEGGSGSSNYKIKYFGFDDLSESEDDEDDDCQVERKTSKKRTKTAPSPSLQPPPESNDNSQDSQSGTNNAENLDFTEDLPGVPESVKKPINKQGDKSKENTRKIFSGPKRSPTKAVYNARHWNHPDSEELPGPPVVKPQSVTVRLSSKEPNQKDDGVFKAPAPPSKVIKTVTIPTQPYQDIVTALKCRREDKELYTVVQHVKHFNDVVEFGENQEFTDDIEYLLSGLKSTQPLNTRCLSVISLATKCAMPSFRMHLRAHGMVAMVFKTLDDSQHHQNLSLCTAALMYILSRDRLNMDLDRASLDLMIRLLELEQDASSAKLLNEKDMNKIKEKIRRLCETVHNKHLDLENITTGHLAMETLLSLTSKRAGDWFKEELRLLGGLDHIVDKVKECVDHLSRDEDEEKLVASLWGAERCLRVLESVTVHNPENQSYLIAYKDSQLIVSSAKALQHCEELIQQYNRAEDSICLADSKPLPHQNVTNHVGKAVEDCMRAIIGVLLNLTNDNEWGSTKTGEQDGLIGTALNCVLQVPKYLPQEQRFDIRVLGLGLLINLVEYSARNRHCLVNMETSCSFDSSICSGEGDDSLRIGGQVHAVQALVQLFLERERAAQLAESKTDELIKDAPTTQHDKSGEWQETSGEIQWVSTEKTDGTEEKHKKEEEDEELDLNKALQHAGKHMEDCIVASYTALLLGCLCQESPINVTTVREYLPEGDFSIMTEMLKKFLSFMNLTCAVGTTGQKSISRVIEYLEHC
notes: Wapl, human; insert by PCR on human cDNA; Isolated from mitotically arrested cells; also called GFP-SUMOstar-Wapl; source: Hek293T, transiently transfected, taxol-arrested; not shown: GFP, N-terminal, cleaved; SUMOstar, N-terminal, cleaved
Turning to B1, the binding result is “binds”.
